From PMC4650713, “Crystal structure of Bax bound to the BH3 peptide of Bim identifies important contacts for interaction” (Cell Death & Disease, 2015)

Tests used:
[1] = target: the molecule itself; experiment: crystal structure; BimBH3:BaxΔC26; core/latch dimer induced by peptide, purified by SEC, threefold molar excess of peptide added; 0.1 M sodium bicine pH 9.0, 20% PEG6000, 277 K
[2] = target: the molecule itself; experiment: crystal structure; BidBH3, BimBH3mini or BidBH3mini with core/latch dimers of BaxI66AΔC21, BaxΔC26 or BaxΔC28; threefold molar excess of peptide; about 1 M tri-sodium citrate, 0.1 M sodium cacodylate pH 6.5, 277 K

B1: BaxΔC26 (domain or fragment)
chain: MDGSGEQPRGGGPTSSEQIMKTGALLLQGFIQDRAGRMGGEAPELALDPVPQDASTKKLSESLKRIGDELDSNMELQRMIAAVDTDSPREVFFRVAADMFSDGNFNWGRVVALFYFASKLVLKALSTKVPELIRTIMGWTLDFLRERLLGWIQDQGGWDGLLSYFGSS
notes: Bax truncated at the C terminus by 26 amino acids, with C62S and C126S; C terminus G166; two extra residues (Ser–Ser) at the C terminus after intein digestion, a cloning artefact; In the crystals it stands as a domain-swapped core/latch dimer, each chain with one BH3 peptide; also called Bax C62S C126S truncated at the C terminus by 26 amino acids
[1]
  stoichiometry N: 2

B2: BaxI66AΔC21 (domain or fragment, UniProt Q07812 1-171, looked up)
chain: MDGSGEQPRGGGPTSSEQIMKTGALLLQGFIQDRAGRMGGEAPELALDPVPQDASTKKLSESLKRAGDELDSNMELQRMIAAVDTDSPREVFFRVAADMFSDGNFNWGRVVALFYFASKLVLKALSTKVPELIRTIMGWTLDFLRERLLGWIQDQGGWDGLLSYFGTPTWQ
notes: BaxΔC21 (Bax truncated at the C terminus by 21 amino acids, with C62S and C126S) with I66A; Called a BaxΔC21 mutant; In the crystal it stands as a core/latch dimer; also called BaxΔC21 mutant I66A
[2]
  stoichiometry N: 2

B3: BaxΔC28 (domain or fragment)
chain: MDGSGEQPRGGGPTSSEQIMKTGALLLQGFIQDRAGRMGGEAPELALDPVPQDASTKKLSESLKRIGDELDSNMELQRMIAAVDTDSPREVFFRVAADMFSDGNFNWGRVVALFYFASKLVLKALSTKVPELIRTIMGWTLDFLRERLLGWIQDQGGWDGLLSYSS
notes: Bax truncated at the C terminus by 28 amino acids, with C62S and C126S; lacks F165; two extra residues (Ser–Ser) at the C terminus after intein digestion, a cloning artefact; In the crystal it stands as a core/latch dimer; also called Bax C62S C126S truncated at the C terminus by 28 amino acids
[2]
  stoichiometry N: 2
